# Data as given in publication PMC8881611, “A mechanism of origin licensing control through autoinhibition of S. cerevisiae ORC·DNA·Cdc6” (Nature Communications, 2022).
# T1: S. cerevisiae Orc1 (S. cerevisiae, UniProt P54784 1-914)
# T1 construct: Orc1, S. cerevisiae, wild type; Stood in the assays as a subunit of ScORC·DNA(·Cdc6); also called ScOrc1; source: High5 insect cells, co-expressed and purified as a subunit of ScORC; not shown: His6, N-terminal, cleaved
# T1 sequence (looked up): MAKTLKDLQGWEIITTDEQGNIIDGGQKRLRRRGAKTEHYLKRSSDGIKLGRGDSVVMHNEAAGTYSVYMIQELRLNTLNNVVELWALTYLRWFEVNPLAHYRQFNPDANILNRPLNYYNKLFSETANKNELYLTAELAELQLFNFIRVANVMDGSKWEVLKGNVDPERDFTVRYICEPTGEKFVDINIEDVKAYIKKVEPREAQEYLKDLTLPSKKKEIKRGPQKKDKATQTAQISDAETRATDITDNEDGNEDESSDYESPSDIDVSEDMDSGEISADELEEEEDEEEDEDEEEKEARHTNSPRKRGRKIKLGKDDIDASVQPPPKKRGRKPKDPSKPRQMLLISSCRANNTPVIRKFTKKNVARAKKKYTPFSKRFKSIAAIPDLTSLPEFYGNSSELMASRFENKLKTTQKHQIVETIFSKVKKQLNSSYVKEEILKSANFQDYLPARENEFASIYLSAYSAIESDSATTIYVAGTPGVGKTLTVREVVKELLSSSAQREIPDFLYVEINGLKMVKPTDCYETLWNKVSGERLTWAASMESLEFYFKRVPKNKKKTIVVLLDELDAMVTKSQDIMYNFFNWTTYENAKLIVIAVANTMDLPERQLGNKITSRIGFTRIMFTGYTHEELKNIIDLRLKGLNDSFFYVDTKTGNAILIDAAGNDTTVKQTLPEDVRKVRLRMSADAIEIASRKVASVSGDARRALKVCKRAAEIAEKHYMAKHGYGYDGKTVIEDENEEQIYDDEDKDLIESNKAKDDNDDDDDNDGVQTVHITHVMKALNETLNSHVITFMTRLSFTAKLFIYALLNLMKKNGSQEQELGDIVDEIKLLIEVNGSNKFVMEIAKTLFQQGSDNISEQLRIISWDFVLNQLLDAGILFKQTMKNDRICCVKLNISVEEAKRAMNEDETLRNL
# B1: S. cerevisiae Orc6 (natural protein, UniProt P38826 1-435, looked up)
# chain: MSMQQVQHCVAEVLRLDPQEKPDWSSGYLKKLTNATSILYNTSLNKVMLKQDEEVARCHICAYIASQKMNEKHMPDLCYYIDSIPLEPKKAKHLMNLFRQSLSNSSPMKQFAWTPSPKKNKRSPVKNGGRFTSSDPKELRNQLFGTPTKVRKSQNNDSFVIPELPPMQTNESPSITRRKLAFEEDEDEDEEEPGNDGLSLKSHSNKSITGTRNVDSDEYENHESDPTSEEEPLGVQESRSGRTKQNKAVGKPQSELKTAKALRKRGRIPNSLLVKKYCKMTTEEIIRLCNDFELPREVAYKIVDEYNINASRLVCPWQLVCGLVLNCTFIVFNERRRKDPRIDHFIVSKMCSLMLTSKVDDVIECVKLVKELIIGEKWFRDLQIRYDDFDGIRYDEIIFRKLGSMLQTTNILVTDDQYNIWKKRIEMDLALTEPL
# modifications: mixture of unphosphorylated and phosphorylated Orc6, including established CDK sites (sites not given)
# notes: Orc6, S. cerevisiae, wild type; Stood in the assays as a subunit of ScORC·DNA(·Cdc6); also called ScOrc6; holds Orc6-CBN (N-terminal cyclin box fold) and Orc6-CBC (C-terminal cyclin box fold); source: High5 insect cells, co-expressed and purified as a subunit of ScORC
# B2: S. cerevisiae Cdc6 (ScCdc6), full length (natural protein, UniProt P09119 1-513, looked up)
# chain: MSAIPITPTKRIRRNLFDDAPATPPRPLKRKKLQFTDVTPESSPEKLQFGSQSIFLRTKALLQKSSELVNLNSSDGALPARTAEYEQVMNFLAKAISEHRSDSLYITGPPGTGKTAQLDMIIRQKFQSLPLSLSTPRSKDVLRHTNPNLQNLSWFELPDGRLESVAVTSINCISLGEPSSIFQKIFDSFQDLNGPTLQIKNMQHLQKFLEPYHKKTTFVVVLDEMDRLLHANTSETQSVRTILELFLLAKLPTVSFVLIGMANSLDMKDRFLSRLNLDRGLLPQTIVFQPYTAEQMYEIVIQKMSSLPTIIFQPMAIKFAAKKCAGNTGDLRKLFDVLRGSIEIYELEKRFLLSPTRGSLNSAQVPLTPTTSPVKKSYPEPQGKIGLNYIAKVFSKFVNNNSTRTRIAKLNIQQKLILCTIIQSLKLNSDATIDESFDHYIKAITKTDTLAPLQRNEFLEICTILETCGLVSIKKTKCKGKTKRFVDKIDVDLDMREFYDEMTKISILKPFLH
# notes: Cdc6, S. cerevisiae, wild type; also called co-loader; source: High5 insect cells, baculovirus, purified as ScORC (HisTrap, amylose, TEV cleavage, HisTrap, Superdex 200); not shown: His6, N-terminal, cleaved; MBP, N-terminal, cleaved
# How the values were obtained:
# Assay in all cases: cryo-EM structure; ScORC (2.5 uM), 84 bp ARS1 DNA (3 uM) and ScCdc6 (6.8 uM) reconstituted with 1 mM ATP, purified on Superose 6 in 25 mM HEPES-KOH pH 7.6, 250 mM potassium acetate, 10 mM magnesium acetate, 1 mM DTT, 0.2 mM ATP; not cross-linked; masked 3D classification
# Details in all cases: both partners purified
# [1] = molecular target: B2
# [2] = molecular target: T2, S. cerevisiae Origin Recognition Complex (ScORC), full-length Orc1-6 (S. cerevisiae, UniProt P54784 1-914; P32833 1-620; P54790 1-616; P54791 1-529; P50874 1-479; P38826 …, mixture of unphosphorylated and phosphorylated Orc6, including established CDK sites (sites not given))
# T2 construct: Orc1, S. cerevisiae, wild type; Orc2, S. cerevisiae, wild type; Orc3, S. cerevisiae, wild type; Orc4, S. cerevisiae, wild type; Orc5, S. cerevisiae, wild type; Orc6, S. cerevisiae, wild type; also called initiator; source: High5 insect cells co-infected with baculoviruses, purified (HisTrap, amylose, TEV cleavage, HisTrap, Sephacryl S-400); not shown: His6, N-terminal, cleaved; MBP, N-terminal, …
# S. cerevisiae Orc1 = molecular target: T1, S. cerevisiae Orc1
# T2 sequence (P32833 whole entry, chain 2 of 4): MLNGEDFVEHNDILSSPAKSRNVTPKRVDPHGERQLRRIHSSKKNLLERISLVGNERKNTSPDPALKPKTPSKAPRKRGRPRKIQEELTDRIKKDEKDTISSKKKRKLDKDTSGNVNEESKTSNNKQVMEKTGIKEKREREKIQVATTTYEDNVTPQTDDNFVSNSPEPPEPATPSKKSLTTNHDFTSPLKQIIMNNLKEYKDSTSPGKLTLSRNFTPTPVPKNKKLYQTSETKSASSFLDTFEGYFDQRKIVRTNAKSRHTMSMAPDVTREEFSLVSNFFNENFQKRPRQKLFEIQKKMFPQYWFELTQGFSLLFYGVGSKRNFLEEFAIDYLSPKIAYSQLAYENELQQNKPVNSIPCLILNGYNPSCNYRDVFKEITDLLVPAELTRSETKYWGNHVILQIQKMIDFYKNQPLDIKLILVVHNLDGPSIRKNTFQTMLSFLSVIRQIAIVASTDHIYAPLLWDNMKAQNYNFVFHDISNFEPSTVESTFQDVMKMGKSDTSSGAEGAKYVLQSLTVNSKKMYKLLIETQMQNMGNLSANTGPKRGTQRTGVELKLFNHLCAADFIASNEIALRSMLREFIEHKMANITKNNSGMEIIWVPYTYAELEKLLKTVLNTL
# T2 sequence (P54790 whole entry, chain 3 of 4): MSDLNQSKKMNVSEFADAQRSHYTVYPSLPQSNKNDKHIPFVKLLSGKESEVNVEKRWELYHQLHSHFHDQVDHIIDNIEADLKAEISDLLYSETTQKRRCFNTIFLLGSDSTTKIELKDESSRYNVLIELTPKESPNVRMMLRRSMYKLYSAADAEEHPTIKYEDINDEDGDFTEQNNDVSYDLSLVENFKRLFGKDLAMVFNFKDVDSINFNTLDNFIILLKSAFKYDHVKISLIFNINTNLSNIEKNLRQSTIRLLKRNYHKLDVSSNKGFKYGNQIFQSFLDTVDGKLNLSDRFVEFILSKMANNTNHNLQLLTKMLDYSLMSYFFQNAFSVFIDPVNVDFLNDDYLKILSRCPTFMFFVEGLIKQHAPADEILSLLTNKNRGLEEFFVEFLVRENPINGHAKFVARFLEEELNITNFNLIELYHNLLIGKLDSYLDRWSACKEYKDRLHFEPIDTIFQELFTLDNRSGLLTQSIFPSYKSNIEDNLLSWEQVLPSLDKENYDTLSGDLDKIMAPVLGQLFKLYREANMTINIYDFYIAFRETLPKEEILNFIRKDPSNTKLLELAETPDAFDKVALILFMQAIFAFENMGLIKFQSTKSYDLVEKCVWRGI
# T2 sequence (P54791 whole entry, chain 4 of 4): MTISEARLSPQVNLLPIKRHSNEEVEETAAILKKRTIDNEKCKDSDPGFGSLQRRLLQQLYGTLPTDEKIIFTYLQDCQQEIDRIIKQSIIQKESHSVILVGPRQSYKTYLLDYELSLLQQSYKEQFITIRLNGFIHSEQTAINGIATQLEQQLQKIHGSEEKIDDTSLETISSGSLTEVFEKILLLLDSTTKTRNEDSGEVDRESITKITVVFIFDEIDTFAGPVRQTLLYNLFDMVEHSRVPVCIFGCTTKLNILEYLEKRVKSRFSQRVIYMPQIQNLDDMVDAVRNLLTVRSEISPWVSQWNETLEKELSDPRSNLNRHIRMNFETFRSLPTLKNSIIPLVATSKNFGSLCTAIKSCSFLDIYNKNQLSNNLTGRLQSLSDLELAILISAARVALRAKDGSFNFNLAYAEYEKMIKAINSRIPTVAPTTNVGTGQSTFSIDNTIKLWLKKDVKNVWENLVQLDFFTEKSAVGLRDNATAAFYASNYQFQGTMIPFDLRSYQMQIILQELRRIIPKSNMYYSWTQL
# T2 sequence (P50874 whole entry, chain 5 of 4): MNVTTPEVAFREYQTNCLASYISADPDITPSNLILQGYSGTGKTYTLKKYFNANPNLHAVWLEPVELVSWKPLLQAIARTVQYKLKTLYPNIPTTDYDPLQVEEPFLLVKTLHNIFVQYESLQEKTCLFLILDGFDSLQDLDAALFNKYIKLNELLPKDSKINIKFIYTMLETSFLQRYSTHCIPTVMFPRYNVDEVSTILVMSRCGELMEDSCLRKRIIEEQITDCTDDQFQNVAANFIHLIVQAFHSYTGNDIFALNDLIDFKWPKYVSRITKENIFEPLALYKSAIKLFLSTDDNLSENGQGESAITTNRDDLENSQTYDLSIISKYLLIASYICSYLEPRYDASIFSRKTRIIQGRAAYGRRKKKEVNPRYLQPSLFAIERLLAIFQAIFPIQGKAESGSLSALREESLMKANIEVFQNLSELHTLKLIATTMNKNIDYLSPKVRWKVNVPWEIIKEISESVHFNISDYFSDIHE
Binder,binding result [1],binding result [2],binding result (S. cerevisiae Orc1)
B1,binds,–,–
B2,–,binds,binds
